Data on two molecules can be found in US20150071927A1 (UNIVERSITY OF HONG KONG, published 2015).

In experiment [1] the target is T1, membrane-associated IGF-IR on SKOV-3 cells (human, UniProt P08069 31-936). The experiment in a line: flow cytometry on SKOV-3 cells, MFI against antibody concentration. The method, then:
(§1) MCF-7 or SKOV-3 cells were detached using enzyme-free cell-disassociation buffer (Invitrogen), washed twice with PBS, and incubated at 4° C. for 2 h with antibodies in fluorescence-activated cell sorting (FACS) buffer (1% FBS in PBS). Cell surface bound antibodies were detected using PE conjugated to anti-human Fc by incubation at 4° C. for 1 h followed by washing twice with FACS buffer and fixation with 2% paraformaldehyde in FACS buffer. The stained cells were analyzed with a BD flow cytometer and FlowJo software.

Experiment [2] deals with T1, membrane-associated IGF-IR on SKOV-3 …. The experiment can be described thus: flow cytometry on SKOV-3 cells. The method, then: as §1
The target in experiment [3] is T2, recombinant IGF-IR ectodomain (His-tagged) (human, UniProt P08069 31-935).
T2 construct: also called recombinant IGF-IR (coated); recombinant IGF-IR ectodomains
T2 sequence (P08069 31-935): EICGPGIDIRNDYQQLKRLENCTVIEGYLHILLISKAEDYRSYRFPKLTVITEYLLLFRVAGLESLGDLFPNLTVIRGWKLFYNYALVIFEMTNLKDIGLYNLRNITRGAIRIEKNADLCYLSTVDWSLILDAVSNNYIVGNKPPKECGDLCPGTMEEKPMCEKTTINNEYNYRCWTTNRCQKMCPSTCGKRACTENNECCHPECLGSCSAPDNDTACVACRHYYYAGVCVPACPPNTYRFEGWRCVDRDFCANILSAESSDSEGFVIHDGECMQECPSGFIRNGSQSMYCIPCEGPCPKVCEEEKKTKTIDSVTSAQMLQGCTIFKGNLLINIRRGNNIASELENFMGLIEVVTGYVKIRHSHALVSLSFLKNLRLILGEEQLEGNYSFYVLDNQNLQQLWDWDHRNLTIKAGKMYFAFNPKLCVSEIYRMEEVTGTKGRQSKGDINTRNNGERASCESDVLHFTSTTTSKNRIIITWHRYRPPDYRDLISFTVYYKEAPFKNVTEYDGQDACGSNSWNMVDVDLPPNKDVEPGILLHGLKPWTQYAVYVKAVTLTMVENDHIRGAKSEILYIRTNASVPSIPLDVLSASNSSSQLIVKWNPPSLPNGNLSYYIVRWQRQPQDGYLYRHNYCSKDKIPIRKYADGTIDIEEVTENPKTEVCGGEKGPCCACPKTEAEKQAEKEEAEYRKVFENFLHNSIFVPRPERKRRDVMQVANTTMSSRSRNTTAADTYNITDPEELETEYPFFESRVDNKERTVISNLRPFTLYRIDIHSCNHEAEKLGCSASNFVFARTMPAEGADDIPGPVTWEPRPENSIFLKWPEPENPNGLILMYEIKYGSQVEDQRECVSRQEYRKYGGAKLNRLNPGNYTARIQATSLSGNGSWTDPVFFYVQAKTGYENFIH
The experiment in a line: indirect ELISA, IGF-IR ectodomain coated, biotinylated HER2 ectodomain detected with streptavidin-HRP. The method, then: Recombinant ectodomains of IGF-IR or HER2 ([…] in both cases) were coated on 96-well high-binding ELISA plates at 4° C. overnight. The plates were washed and blocked with 3% BSA in PBS at 37° C. for 2 h. Two-fold serially diluted mAb Herceptin or m590 were added to the wells and the bound mAbs were detected by HRP conjugated anti-human Fc as secondary antibody and TMB substrate. Optical density at 450 nm (OD450 nm) was measured after color development at RT for 30 min. In the case of Bi-Ab, recombinant IGF-IR ectodomains were coated on the plates. Following addition of 2-fold serially diluted Bi-Ab and incubation at RT for 2 h, plates were washed and biotinylated HER2 ectodomain (2 μg/ml) was added to each well. Bound HER2 ectodomains were detected by HRP conjugated streptavidin and TMB substrate.
Following addition of the anti-HER2/anti-IGF-IR antibodies to recombinant IGF-IR-coated plates biotinylated recombinant HER2 ectodomains were added. Bound HER2 ectodomains were detected by HRP conjugated streptavidin and TMB substrate.

T1 sequence (P08069 31-936 limits assumed): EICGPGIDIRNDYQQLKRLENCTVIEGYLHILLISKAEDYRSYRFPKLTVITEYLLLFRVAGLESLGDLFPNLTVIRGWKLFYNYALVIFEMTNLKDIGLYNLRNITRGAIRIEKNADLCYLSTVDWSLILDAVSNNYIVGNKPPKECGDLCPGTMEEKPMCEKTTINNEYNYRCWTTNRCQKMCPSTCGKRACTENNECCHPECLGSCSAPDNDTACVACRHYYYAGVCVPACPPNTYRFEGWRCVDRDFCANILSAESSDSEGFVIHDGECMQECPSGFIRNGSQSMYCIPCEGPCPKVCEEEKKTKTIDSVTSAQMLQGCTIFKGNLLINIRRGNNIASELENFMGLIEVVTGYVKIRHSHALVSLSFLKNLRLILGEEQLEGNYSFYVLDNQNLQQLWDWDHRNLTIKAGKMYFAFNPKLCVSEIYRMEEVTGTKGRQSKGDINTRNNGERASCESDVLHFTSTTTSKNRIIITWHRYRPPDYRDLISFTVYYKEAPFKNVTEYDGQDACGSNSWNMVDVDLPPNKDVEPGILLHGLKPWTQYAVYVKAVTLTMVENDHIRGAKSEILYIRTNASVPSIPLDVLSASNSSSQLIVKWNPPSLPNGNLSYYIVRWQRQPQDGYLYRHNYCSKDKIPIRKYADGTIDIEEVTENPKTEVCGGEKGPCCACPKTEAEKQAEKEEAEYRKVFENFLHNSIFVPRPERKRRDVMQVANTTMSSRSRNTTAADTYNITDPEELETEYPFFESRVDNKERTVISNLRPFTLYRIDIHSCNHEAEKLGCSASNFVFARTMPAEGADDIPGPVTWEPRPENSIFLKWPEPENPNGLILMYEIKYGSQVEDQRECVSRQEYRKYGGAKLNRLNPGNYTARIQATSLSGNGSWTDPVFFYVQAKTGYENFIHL

B1: m590 anti-IGF-IR mouse/human chimeric antibody (antibody, human IgG1, kappa, V domains shown)
VH: EVQLQQSGPELEQPGSSVKISCKASGYSFTAYYMHWVKQSHGKSLEWIGRINPDNGGNSYNQKFKGKAILTVDKSSNTAYMELRSLTSEDSAVYYCAKSTSYDYDGYWYFDVWGAGTTVTVSS
VL: QIVLTQSPAIMSASPGEKVTITCSASSSVSYIHWFQQKPGTSPKVWIYGTSNLASGVPARFTGSGSGTSYSLTISRMEAEDAATYYCQQRSSYPFTFGSGTKLEIKR
notes: also called human/mouse chimeric mAb m590
B1: the binding result in experiment [1] is given as “binds”.

B2: anti-HER2/anti-IGF-IR bi-specific antibody (Bi-Ab) (bispecific antibody, human IgG1, kappa)
heavy 1: not shown
light 1: not shown
heavy 2: not shown
light 2: QIVLTQSPAIMSASPGEKVTITCSASSSVSYIHWFQQKPGTSPKVWIYGTSNLASGVPARFTGSGSGTSYSLTISRMEAEDAATYYCQQRSSYPFTFGSGTKLEIKRTVAAPSVFIFPPSDEQLKSGTASVVCLLNNFYPREAKVQWKVDNALQSGNSQESVTEQDSKDSTYSLSSTLTLSKADYEKHKVYACEVTHQGLSLPVTKSLNRREC
notes: also called anti-IGF-IR/anti-HER2 hybrid IgG; copies: 1 + 1 + 1 + 1
On to B2, for which the binding result in experiment [2] and in experiment [3] was “binds” each time.
